Results from patent US20260091143A1, “NEAR-INFRARED IMAGING AGENT AND USES THEREOF” (CASE WESTERN RESERVE UNIVERSITY, priority 2022, published 2026).
Where a SMILES comes first, the peptide text is derived from it. Where no end group is shown, it is not given here. The star is where a group is joined. X1 = CC1(C)C(/C=C/C=C/C=C/C=C2/N(CCCCCC(=O)*)c3ccc4ccccc4c3C2(C)C)=[N+](CCCCS(=O)(=O)[O-])c2ccc3ccccc3c21; Tide Fluor 8WS = fluorophore acid, coupled by amide to the N-terminal amine

How the values were obtained:
[1] = Ex vivo fluorescence in excised kidneys, spleen and liver; set-up: species or system mice; details: 24 h; for p-value, average radiant efficiency of excised kidney vs SBK2-CLE-ICG / p-value, average radiant efficiency of excised kidney vs Scram-CLE-ICG / p-value, average radiant efficiency of excised kidney vs Scram-ICG / p-value, average radiant efficiency of excised liver vs SBK2-CLE-ICG / p-value, average radiant efficiency of excised liver vs Scram-CLE-ICG / p-value, average radiant efficiency of excised liver vs Scram-ICG / p-value, average radiant efficiency of excised spleen vs SBK2-CLE-ICG / p-value, average radiant efficiency of excised spleen vs Scram-CLE-ICG / p-value, average radiant efficiency of excised spleen vs Scram-ICG / p-value, average radiant efficiency of excised kidney vs SBK2-ICG / p-value, average radiant efficiency of excised liver vs SBK2-ICG / p-value, average radiant efficiency of excised spleen vs SBK2-ICG: ICG-labeled agents 300 nmol/kg, ICG 400 nmol/kg, Welch's t-test
From the text: (§1) The IVIS Spectrum In vivo Imaging System and Living Image analysis software, (Perkin Elmer, Hopkinton, MA, USA) were used for acquisition and analysis of mouse images. Prior to the experiment, mice were weighed, and baseline images acquired using the appropriate filter sets and the autoexposure setting. Three filter sets for excitation/emission were used: 745 nm/800 nm, 745 nm/820 nm, 745 nm/840 nm. The filter set showing highest fluorescence intensity for a fluorophore was used throughout for that dye. For ICG, 745 nm/820 nm was used and for IRDye® 800CW and Tide Fluor™ 8WS, 745 nm/800 nm was used. Agent stocks were diluted in saline or PBS to ˜100 μM and the volume needed for the desired dose of 300 nmol/kg or 400 nmol/kg calculated. Doses were loaded into polyurethane tubing and connected to a 1 mL syringe as previously described. Mice were anesthetized in an induction chamber with 2% isoflurane-oxygen and moved onto a 37° C. heated platform with a nose cone. 26-gauge veterinary catheters were placed in each tail and the preloaded tubing was connected. Agents were injected over 30 sec, catheters were removed, and animals placed in the prepared Spectrum imaging chamber. Images were acquired beginning 10 min after injecting the agents. For SBK2-CCLE-IR800 and Scram-CCLE-IR800, images were acquired every 10 min for 60 min. For the ICG-labeled and TF8WS-labeled peptides, images were acquired at 10 min, 30 min, 1 h, 2 h, 4 h, 8 h, and 24 h. At the end of the imaging time, the animals were euthanized by CO2 asphyxiation, and the tumor and other organs excised and imaged on the Spectrum.
(§2) Living Image analysis software was used for region of interest (ROI) analysis of the optical data. Images acquired for each time point consist of a fluorescent image superimposed on a photographic image. Binning was set to 1 and in vivo tumor ROIs were manually drawn based on contours visible in the black and white photograph for each timepoint. After outlining the tumor ROIs, fluorescence was measured with the built-in Spectrum function. For excised tumors, kidneys, spleen and liver, ROIs were drawn around the perimeter of the tumor or organ.
(§3) LivingImage software measures fluorescence intensity in units of radiant efficiency. For these analyses, average radiant efficiency measurements in (photons/s/cm^2/steradian)/(μW/cm^2) were used for further comparisons to account for differences in tumor and organ size. GraphPad Prism 9 was used for plots and statistical analyses. Where indicated, means for pairs of agents were compared using a two-tailed t-test with Welch's correction and statistical significance was assumed at p<0.05. Welch's correction was used to eliminate assumptions about variance between the groups being compared.

[2] = Whole-body and ventral fluorescent imaging of biodistribution and clearance; assay type: in vivo, mice
From the text: as §1

[3] = test system: LN-229 glioma flank tumor; test: In vivo fluorescent imaging of tumor signal in LN-229 flank tumor-bearing nude mice; details: 400 nmol/kg
From the text: All applicable institutional and/or NIH guidelines for the care and use of animals were followed. The Case Western Reserve University Institutional Animal Care and Use Committee reviewed and approved the animal protocols. Outbred homozygous female nude mice (Fox1^nu/Fox1^nu) were purchased from Jackson Laboratory, Bar Harbor, ME, USA. Details of the human glioblastoma LN-229 cell line have been described previously. LN-229 cells express the PTPμ biomarker and have been used in previous studies for evaluating PTPμ-targeted agents using different imaging modalities. Flank tumors were started in the right flank of mice at approximately 7 weeks of age by injecting a mixture of 2×10^6 cells and Matrigel® Matrix (Corning®, Corning Inc., Corning, NY, USA). Experiments were performed in mice 4 to 8 weeks after implanting the tumors.
as §1, §2, §3

| Molecule | p-value, average radiant efficiency of excised kidney vs SBK2-CLE-ICG [1] | p-value, average radiant efficiency of excised kidney vs Scram-CLE-ICG [1] | p-value, average radiant efficiency of excised kidney vs Scram-ICG [1] | p-value, average radiant efficiency of excised liver vs SBK2-CLE-ICG [1] | p-value, average radiant efficiency of excised liver vs Scram-CLE-ICG [1] | p-value, average radiant efficiency of excised liver vs Scram-ICG [1] | p-value, average radiant efficiency of excised spleen vs SBK2-CLE-ICG [1] | p-value, average radiant efficiency of excised spleen vs Scram-CLE-ICG [1] | p-value, average radiant efficiency of excised spleen vs Scram-ICG [1] | p-value, average radiant efficiency of excised kidney vs SBK2-ICG [1] | p-value, average radiant efficiency of excised liver vs SBK2-ICG [1] | p-value, average radiant efficiency of excised spleen vs SBK2-ICG [1] | further results |
| --- | --- | --- | --- | --- | --- | --- | --- | --- | --- | --- | --- | --- | --- |
| CC(C)C[C@H](NC(=O)[C@@H](NC(=O)[C@H](CC(N)=O)NC(=O)[C@@H](NC(=O)[C@H](CCC(N)=O)NC(=O)[C@H](CCC(=O)O)NC(=O)[C@H](Cc1c[nH]c2ccccc12)NC(=O)[C@H](CC(N)=O)NC(=O)[C@H](Cc1ccccc1)NC(=O)[C@H](CC(=O)O)NC(=O)[C@H](CC(=O)O)NC(=O)CNC(=O)[C@H](CCC(=O)O)NC(=O)CNC(=O)CCCCCN1/C(=C/C=C/C=C/C=C/C2=[N+](CCCCS(=O)(=O)[O-])c3ccc4ccccc4c3C2(C)C)C(C)(C)c2c1ccc1ccccc21)C(C)C)[C@@H](C)O)C(=O)N[C@H](C(=O)N[C@@H](CCCCN)C(=O)N1CCC[C@H]1C(=O)N[C@H](C(=O)N[C@@H](CO)C(=O)N[C@@H](CC(=O)O)C(=O)O)[C@@H](C)O)[C@@H](C)O [SBK2-ICG] (X1-GEGDDFNWEQVNTLTKPTSD-OH) | <0.001 | <0.001 | <0.001 | <0.001 | <0.001 | <0.001 | <0.001 | <0.001 | <0.001 | – | – | – | – |
| CC(C)C[C@H](NC(=O)[C@H](CC(=O)O)NC(=O)[C@H](CC(N)=O)NC(=O)[C@H](CC(=O)O)NC(=O)[C@@H](NC(=O)CNC(=O)[C@@H](NC(=O)[C@H](CCC(=O)O)NC(=O)[C@@H]1CCCN1C(=O)[C@H](CCC(N)=O)NC(=O)[C@@H](NC(=O)[C@H](Cc1ccccc1)NC(=O)CNC(=O)CCCCCN1/C(=C/C=C/C=C/C=C/C2=[N+](CCCCS(=O)(=O)[O-])c3ccc4ccccc4c3C2(C)C)C(C)(C)c2c1ccc1ccccc21)[C@@H](C)O)[C@@H](C)O)[C@@H](C)O)C(=O)N[C@@H](Cc1c[nH]c2ccccc12)C(=O)N[C@@H](CO)C(=O)N[C@H](C(=O)N[C@@H](CC(=O)O)C(=O)N[C@@H](CC(N)=O)C(=O)N[C@@H](CCC(=O)O)C(=O)N[C@@H](CCCCN)C(=O)O)C(C)C [Scram-ICG] (X1-GFTQPETGTDNDLWSVDNEK-OH) | ns | ns | – | ns | ns | – | ns | ns | – | <0.001 | <0.001 | <0.001 | clearance compared to either of the CLE-containing agents ([2]; 400 nmol/kg, 24 h): clear more slowly |
| SBK2-TF8WS: Tide Fluor 8WS conjugated via amide to N-terminus of SBK2 peptide (SEQ ID NO: 5) ({Tide Fluor 8WS}-GEGDDFNWEQVNTLTKPTSD) | – | – | – | – | – | – | – | – | – | – | – | – | difference in average radiant efficiency in kidney, spleen, or liver vs Scram-TF8WS ([1]; 400 nmol/kg): no significant differences; tumor signal at 24 h (not specific for PTPμ) [3]: high tumor-specific signal; difference in in vivo tumor average radiant efficiency vs Scram-TF8WS ([3]; at any time out to 24 h): No significant differences; specific tumor labeling ([3]; versus Scrambled control agents): no specific tumor labeling |
| CC1(C)C(=CC=C2CCCC(C=CC3=[N+](CCCCCC(=O)[O-])c4ccc(S(=O)(=O)[O-])cc4C3(C)C)=C2Oc2ccc(S(=O)(=O)[O-])cc2)N(CCCCS(=O)(=O)[O-])c2ccc(S(=O)(=O)[O-])cc21.[Na+].[Na+].[Na+].[Na+] [IRDye® 800CW] | – | – | – | – | – | – | – | – | – | – | – | – | clearance compared to the peptide-containing agents ([2]; dye only, data not shown): cleared more slowly; overall body fluorescence compared to IRDye 800CW-labeled peptides at the same dose ([2]; dye only, data not shown): more overall fluorescence throughout the body |
| Scram-TF8WS: Tide Fluor 8WS conjugated to N-terminus of Scrambled control peptide (SEQ ID NO: 48) ({Tide Fluor 8WS}-GFTQPETGTDNDLWSVDNEK) | – | – | – | – | – | – | – | – | – | – | – | – | tumor signal at 24 h (not specific for PTPμ) [3]: high tumor-specific signal |
| CC(C)C[C@H](NC(=O)[C@@H](NC(=O)[C@H](CC(N)=O)NC(=O)[C@@H](NC(=O)[C@H](CCC(N)=O)NC(=O)[C@H](CCC(=O)O)NC(=O)[C@H](Cc1c[nH]c2ccccc12)NC(=O)[C@H](CC(N)=O)NC(=O)[C@H](Cc1ccccc1)NC(=O)[C@H](CC(=O)O)NC(=O)[C@H](CC(=O)O)NC(=O)CNC(=O)[C@H](CCC(=O)O)NC(=O)CNC(=O)[C@H](CO)NC(=O)CNC(=O)CNC(=O)[C@H](CO)NC(=O)CNC(=O)CNC(=O)CCCCCN1/C(=C/C=C/C=C/C=C/C2=[N+](CCCCS(=O)(=O)[O-])c3ccc4ccccc4c3C2(C)C)C(C)(C)c2c1ccc1ccccc21)C(C)C)[C@@H](C)O)C(=O)N[C@H](C(=O)N[C@@H](CCCCN)C(=O)N1CCC[C@H]1C(=O)N[C@H](C(=O)N[C@@H](CO)C(=O)N[C@@H](CC(=O)O)C(=O)O)[C@@H](C)O)[C@@H](C)O [SBK2-CLE-ICG] (X1-GGSGGSGEGDDFNWEQVNTLTKPTSD-OH) | – | 0.034 | ns | – | ns | ns | – | 0.015 | ns | <0.001 | <0.001 | <0.001 | clearance compared to SBK2-ICG ([2]; mouse, in vivo): cleared more rapidly |
| CC(C)C[C@H](NC(=O)[C@H](CC(=O)O)NC(=O)[C@H](CC(N)=O)NC(=O)[C@H](CC(=O)O)NC(=O)[C@@H](NC(=O)CNC(=O)[C@@H](NC(=O)[C@H](CCC(=O)O)NC(=O)[C@@H]1CCCN1C(=O)[C@H](CCC(N)=O)NC(=O)[C@@H](NC(=O)[C@H](Cc1ccccc1)NC(=O)CNC(=O)[C@H](CO)NC(=O)CNC(=O)CNC(=O)[C@H](CO)NC(=O)CNC(=O)CNC(=O)CCCCCN1/C(=C/C=C/C=C/C=C/C2=[N+](CCCCS(=O)(=O)[O-])c3ccc4ccccc4c3C2(C)C)C(C)(C)c2c1ccc1ccccc21)[C@@H](C)O)[C@@H](C)O)[C@@H](C)O)C(=O)N[C@@H](Cc1c[nH]c2ccccc12)C(=O)N[C@@H](CO)C(=O)N[C@H](C(=O)N[C@@H](CC(=O)O)C(=O)N[C@@H](CC(N)=O)C(=O)N[C@@H](CCC(=O)O)C(=O)N[C@@H](CCCCN)C(=O)O)C(C)C [Scram-CLE-ICG] (X1-GGSGGSGFTQPETGTDNDLWSVDNEK-OH) | 0.034 | – | ns | ns | – | ns | 0.015 | – | ns | <0.001 | <0.001 | <0.001 | – |
